Legend:
Smc3 = molecular target: T1, Smc3 (budding yeast, UniProt P47037 1-1230); assay: SEC; purified cohesin tetramer, 150 nM in cohesin loading buffer (35 mM Tris-HCl pH 7.0, 20 mM NaCl, 0.5 mM MgCl2, 0.5 mM ATP), run directly or after 120 min at 29°C on Superose 6 Increase 10/300 GL in R buffer (150 mM NaCl); UV absorbance; settings: both partners purified
T1 construct: Smc3, budding yeast cohesin subunit; Smc3-encoding genomic DNA; The expression strain is eco1 deleted; also called cohesin subunit Smc3; source: co-purified (IgG agarose, heparin, Superose 6)
T1 sequence (looked up): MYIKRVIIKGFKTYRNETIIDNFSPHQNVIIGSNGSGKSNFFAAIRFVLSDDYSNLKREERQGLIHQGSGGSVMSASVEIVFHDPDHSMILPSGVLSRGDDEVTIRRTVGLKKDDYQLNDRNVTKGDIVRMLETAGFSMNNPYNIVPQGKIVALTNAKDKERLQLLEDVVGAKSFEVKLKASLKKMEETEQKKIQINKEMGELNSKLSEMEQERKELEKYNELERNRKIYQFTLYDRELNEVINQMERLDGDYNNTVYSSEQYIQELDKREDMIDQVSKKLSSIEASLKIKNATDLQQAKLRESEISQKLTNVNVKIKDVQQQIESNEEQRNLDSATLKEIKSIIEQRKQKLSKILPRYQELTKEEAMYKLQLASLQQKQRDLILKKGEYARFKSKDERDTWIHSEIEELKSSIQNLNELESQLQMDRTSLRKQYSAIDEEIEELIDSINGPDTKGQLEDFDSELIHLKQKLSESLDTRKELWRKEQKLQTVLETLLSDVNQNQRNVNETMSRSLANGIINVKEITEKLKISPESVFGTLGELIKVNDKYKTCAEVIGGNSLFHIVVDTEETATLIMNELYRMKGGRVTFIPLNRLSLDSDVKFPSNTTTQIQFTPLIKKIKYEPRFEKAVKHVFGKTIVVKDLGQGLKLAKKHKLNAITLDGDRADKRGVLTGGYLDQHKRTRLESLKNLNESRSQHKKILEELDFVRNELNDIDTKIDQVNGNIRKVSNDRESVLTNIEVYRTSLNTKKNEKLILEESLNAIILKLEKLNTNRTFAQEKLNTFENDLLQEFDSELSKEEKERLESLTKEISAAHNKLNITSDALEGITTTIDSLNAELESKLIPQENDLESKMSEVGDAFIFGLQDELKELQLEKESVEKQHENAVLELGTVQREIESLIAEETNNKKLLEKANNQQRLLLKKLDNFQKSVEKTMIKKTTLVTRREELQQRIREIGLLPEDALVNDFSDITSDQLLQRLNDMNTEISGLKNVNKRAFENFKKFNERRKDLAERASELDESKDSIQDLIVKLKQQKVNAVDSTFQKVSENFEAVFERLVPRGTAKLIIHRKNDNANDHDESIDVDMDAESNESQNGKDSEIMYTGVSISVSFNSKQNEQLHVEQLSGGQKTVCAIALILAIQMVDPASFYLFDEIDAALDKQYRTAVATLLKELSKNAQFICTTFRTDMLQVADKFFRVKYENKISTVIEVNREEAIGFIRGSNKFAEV

Scc3 = molecular target: T2, Scc3 (budding yeast, UniProt P40541 1-1150); assay: as above; settings: both partners purified
T2 construct: Scc3, budding yeast cohesin subunit; genomic DNA encoding Scc3; also called HEAT repeat subunit Scc3; source: co-purified (IgG agarose, heparin, Superose 6)
T2 sequence (looked up): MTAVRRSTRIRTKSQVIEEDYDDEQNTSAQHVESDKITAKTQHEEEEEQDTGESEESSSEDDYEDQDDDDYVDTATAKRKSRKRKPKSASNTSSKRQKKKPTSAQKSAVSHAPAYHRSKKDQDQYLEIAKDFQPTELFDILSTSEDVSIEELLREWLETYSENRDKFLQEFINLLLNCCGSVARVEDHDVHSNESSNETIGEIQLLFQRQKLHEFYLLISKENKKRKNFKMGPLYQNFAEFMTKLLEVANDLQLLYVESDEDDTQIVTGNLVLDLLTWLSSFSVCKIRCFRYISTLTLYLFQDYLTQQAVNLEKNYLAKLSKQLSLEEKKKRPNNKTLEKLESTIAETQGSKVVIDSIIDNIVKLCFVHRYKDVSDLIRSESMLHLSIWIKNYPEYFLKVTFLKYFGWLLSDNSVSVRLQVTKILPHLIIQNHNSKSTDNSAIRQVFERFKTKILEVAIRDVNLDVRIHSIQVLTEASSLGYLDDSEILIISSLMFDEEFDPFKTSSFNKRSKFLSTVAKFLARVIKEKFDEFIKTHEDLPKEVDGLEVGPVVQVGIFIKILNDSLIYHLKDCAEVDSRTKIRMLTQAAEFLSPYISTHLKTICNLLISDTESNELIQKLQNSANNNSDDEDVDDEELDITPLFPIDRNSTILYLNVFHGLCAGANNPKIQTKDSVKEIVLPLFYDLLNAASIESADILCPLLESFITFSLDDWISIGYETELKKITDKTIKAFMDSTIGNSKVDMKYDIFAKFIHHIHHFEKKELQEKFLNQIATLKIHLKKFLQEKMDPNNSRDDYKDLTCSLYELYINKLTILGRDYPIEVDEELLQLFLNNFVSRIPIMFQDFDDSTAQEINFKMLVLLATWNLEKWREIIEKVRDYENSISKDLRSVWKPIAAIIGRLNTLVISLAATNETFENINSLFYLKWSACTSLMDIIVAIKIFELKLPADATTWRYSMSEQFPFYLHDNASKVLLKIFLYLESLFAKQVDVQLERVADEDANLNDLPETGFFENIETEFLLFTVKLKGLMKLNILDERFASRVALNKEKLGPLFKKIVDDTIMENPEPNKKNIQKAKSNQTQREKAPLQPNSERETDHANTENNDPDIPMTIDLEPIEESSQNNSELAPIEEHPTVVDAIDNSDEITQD

B1: Smc1 (natural protein, budding yeast, UniProt P32908 1-1225, looked up)
chain: MGRLVGLELSNFKSYRGVTKVGFGESNFTSIIGPNGSGKSNMMDAISFVLGVRSNHLRSNILKDLIYRGVLNDENSDDYDNEGAASSNPQSAYVKAFYQKGNKLVELMRIISRNGDTSYKIDGKTVSYKDYSIFLENENILIKAKNFLVFQGDVEQIAAQSPVELSRMFEEVSGSIQYKKEYEELKEKIEKLSKSATESIKNRRRIHGELKTYKEGINKNEEYRKQLDKKNELQKFQALWQLYHLEQQKEELTDKLSALNSEISSLKGKINNEMKSLQRSKSSFVKESAVISKQKSKLDYIFKDKEKLVSDLRLIKVPQQAAGKRISHIEKRIESLQKDLQRQKTYVERFETQLKVVTRSKEAFEEEIKQSARNYDKFKLNENDLKTYNCLHEKYLTEGGSILEEKIAVLNNDKREIQEELERFNKRADISKRRITEELSITGEKLDTQLNDLRVSLNEKNALHTERLHELKKLQSDIESANNQEYDLNFKLRETLVKIDDLSANQRETMKERKLRENIAMLKRFFPGVKGLVHDLCHPKKEKYGLAVSTILGKNFDSVIVENLTVAQECIAFLKKQRAGTASFIPLDTIETELPTLSLPDSQDYILSINAIDYEPEYEKAMQYVCGDSIICNTLNIAKDLKWKKGIRGKLVTIEGALIHKAGLMTGGISGDANNRWDKEEYQSLMSLKDKLLIQIDELSNGQRSNSIRAREVENSVSLLNSDIANLRTQVTQQKRSLDENRLEIKYHNDLIEKEIQPKITELKKKLDDLENTKDNLVKEKEALQNNIFKEFTSKIGFTIKEYENHSGELMRQQSKELQQLQKQILTVENKLQFETDRLSTTQRRYEKAQKDLENAQVEMKSLEEQEYAIEMKIGSIESKLEEHKNHLDELQKKFVTKQSELNSSEDILEDMNSNLQVLKRERDGIKEDIEKFDLERVTALKNCKISNINIPISSETTIDDLPISSTDNEAITISNSIDINYKGLPKKYKENNTDSARKELEQKIHEVEEILNELQPNARALERYDEAEGRFEVINNETEQLKAEEKKILNQFLKIKKKRKELFEKTFDYVSDHLDAIYRELTKNPNSNVELAGGNASLTIEDEDEPFNAGIKYHATPPLKRFKDMEYLSGGEKTVAALALLFAINSYQPSPFFVLDEVDAALDITNVQRIAAYIRRHRNPDLQFIVISLKNTMFEKSDALVGVYRQQQENSSKIITLDLSNYAE
notes: Smc1, budding yeast cohesin subunit; PCR amplified Smc1-encoding genomic DNA; also called cohesin subunit Smc1; source: co-purified (IgG agarose, heparin, Superose 6)
B1: binds (Smc3).

B2: Scc1 (natural protein, budding yeast, UniProt Q12158 1-566, looked up)
chain: MVTENPQRLTVLRLATNKGPLAQIWLASNMSNIPRGSVIQTHIAESAKEIAKASGCDDESGDNEYITLRTSGELLQGIVRVYSKQATFLLTDIKDTLTKISMLFKTSQKMTSTVNRLNTVTRVHQLMLEDAVTEREVLVTPGLEFLDDTTIPVGLMAQENSMERKVQGAAPWDTSLEVGRRFSPDEDFEHNNLSSMNLDFDIEEGPITSKSWEEGTRQSSRNFDTHENYIQDDDFPLDDAGTIGWDLGITEKNDQNNDDDDNSVEQGRRLGESIMSEEPTDFGFDLDIEKEAPAGNIDTITDAMTESQPKQTGTRRNSKLLNTKSIQIDEETENSESIASSNTYKEERSNNLLTPQPTNFTTKRLWSEITESMSYLPDPILKNFLSYESLKKRKIHNGREGSIEEPELNVSLNLTDDVISNAGTNDNSFNELTDNMSDFVPIDAGLNEAPFPEENIIDAKTRNEQTTIQTEKVRPTPGEVASKAIVQMAKILRKELSEEKEVIFTDVLKSQANTEPENITKREASRGFFDILSLATEGCIGLSQTEAFGNIKIDAKPALFERFINA
notes: Scc1, budding yeast cohesin kleisin subunit; genomic DNA encoding Scc1; also called kleisin subunit Scc1; source: co-purified (IgG agarose, heparin, Superose 6); not shown: two tandem protein A tags, C-terminal, kept
B2: binds (Scc3).

From PMC6205631, “Topological in vitro loading of the budding yeast cohesin ring onto DNA” (Life Science Alliance, 2018)
